{"source": "paper PMC9554601", "biological_target": "stabilized SARS-CoV-2 spike protein trimer (S-6P) (SARS-CoV-2) (UniProt P0DTC2)", "test": "cryo-EM structure", "data": [{"substance": "stabilized SARS-CoV-2 spike protein trimer (S-6P) (from UniProt P0DTC2)", "values": [{"measurement": "stoichiometry N", "result": 3}]}]}
